We go through one molecule from paper PMC9687980 (Bioengineering, 2022).

For assay [1], the target named is T1, MBP-fused spike receptor binding domain of SARS-CoV-2 Omicron BA.1 (MBP-RBDomi) (SARS-CoV-2 Omicron BA.1 (GenBank …, strain)).
T1 construct: also called MBP-fused Omicron RBD; MBP-RBD_(omicron)
Nature of the assay: ELISA; 4 ug of recombinant RBD immobilised on a high-binding plate; blocked with 4% skim milk; serial-diluted antibody in PBST; detected with Protein A-HRP, 450 nm. To be noted: both partners purified.

Assay [2] has as its target T2, spike RBD of SARS-CoV-2 Omicron expressed in a mammalian system (SARS-CoV-2 Omicron, taken as BA.1, strain, N-linked glycans appended on N331 and N343).
T2 construct: also called Mammalian RBDomi; mammalian cell-expressing RBDomi
Described as above. To be noted: both partners purified.

B1: CR3022, human IgG1 (antibody, V domains shown)
VH: QMQLVQSGTEVKKPGESLKISCKGSGYGFITYWIGWVRQMPGKGLEWMGIIYPGDSETRYSPSFQGQVTISADKSINTAYLQWSSLKASDTAIYYCAGGSGISTPMDVWGQGTTVTV
VL: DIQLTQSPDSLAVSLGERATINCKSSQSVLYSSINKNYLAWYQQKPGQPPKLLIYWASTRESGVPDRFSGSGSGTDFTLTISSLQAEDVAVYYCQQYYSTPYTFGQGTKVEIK
notes: IgG1
On to B1, for which the binding result in assay [1] and in assay [2] was “binds” in each case.
